Assay in all cases: ELISA
For experiment [1], the target named is T1, human EphA3 extracellular region-SEAP-His protein (human, UniProt P29320 21-541).
T1 construct: extracellular domain; also called hEphA3-SEAP-His
T1 sequence (looked up): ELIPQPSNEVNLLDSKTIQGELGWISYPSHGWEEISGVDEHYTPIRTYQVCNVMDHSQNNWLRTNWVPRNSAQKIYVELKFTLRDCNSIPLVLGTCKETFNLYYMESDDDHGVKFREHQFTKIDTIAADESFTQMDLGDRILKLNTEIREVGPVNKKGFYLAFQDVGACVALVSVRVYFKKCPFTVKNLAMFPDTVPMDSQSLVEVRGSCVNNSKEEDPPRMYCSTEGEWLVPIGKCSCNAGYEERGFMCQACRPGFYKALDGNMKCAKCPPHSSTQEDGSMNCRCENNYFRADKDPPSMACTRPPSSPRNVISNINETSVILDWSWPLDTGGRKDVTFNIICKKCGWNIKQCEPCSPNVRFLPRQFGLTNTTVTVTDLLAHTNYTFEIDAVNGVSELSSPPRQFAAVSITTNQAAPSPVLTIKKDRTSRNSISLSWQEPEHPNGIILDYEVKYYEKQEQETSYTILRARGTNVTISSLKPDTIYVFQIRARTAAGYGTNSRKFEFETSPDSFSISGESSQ

The target of experiment [2] is T2, human EphA5 extracellular region-SEAP-His protein (human, UniProt P54756 25-573).
T2 construct: extracellular domain; also called hEphA5-SEAP-His

The target of experiment [3] is T3, human EphA7 extracellular region-SEAP-His protein (human, UniProt Q15375 28-555).
T3 construct: extracellular domain; also called hEphA7-SEAP-His
T3 sequence (looked up): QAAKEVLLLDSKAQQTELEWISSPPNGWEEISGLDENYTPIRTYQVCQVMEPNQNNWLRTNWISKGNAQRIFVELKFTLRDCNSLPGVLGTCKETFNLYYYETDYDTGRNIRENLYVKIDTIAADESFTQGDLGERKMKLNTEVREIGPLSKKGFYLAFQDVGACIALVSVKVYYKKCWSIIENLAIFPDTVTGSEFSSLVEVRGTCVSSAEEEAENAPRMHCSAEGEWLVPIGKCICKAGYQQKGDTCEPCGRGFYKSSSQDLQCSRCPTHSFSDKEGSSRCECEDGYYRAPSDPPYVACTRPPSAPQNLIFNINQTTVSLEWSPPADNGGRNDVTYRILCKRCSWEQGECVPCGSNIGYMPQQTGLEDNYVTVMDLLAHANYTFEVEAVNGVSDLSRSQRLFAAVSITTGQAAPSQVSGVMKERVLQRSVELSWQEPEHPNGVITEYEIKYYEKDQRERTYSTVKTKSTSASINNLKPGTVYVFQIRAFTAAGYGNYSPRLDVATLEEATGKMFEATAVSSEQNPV

The target of experiment [4] is T4, human EphB3 extracellular region-SEAP-His protein (human, UniProt P54753 34-559).
T4 construct: extracellular domain; also called hEphB3-SEAP-His
T4 sequence (looked up): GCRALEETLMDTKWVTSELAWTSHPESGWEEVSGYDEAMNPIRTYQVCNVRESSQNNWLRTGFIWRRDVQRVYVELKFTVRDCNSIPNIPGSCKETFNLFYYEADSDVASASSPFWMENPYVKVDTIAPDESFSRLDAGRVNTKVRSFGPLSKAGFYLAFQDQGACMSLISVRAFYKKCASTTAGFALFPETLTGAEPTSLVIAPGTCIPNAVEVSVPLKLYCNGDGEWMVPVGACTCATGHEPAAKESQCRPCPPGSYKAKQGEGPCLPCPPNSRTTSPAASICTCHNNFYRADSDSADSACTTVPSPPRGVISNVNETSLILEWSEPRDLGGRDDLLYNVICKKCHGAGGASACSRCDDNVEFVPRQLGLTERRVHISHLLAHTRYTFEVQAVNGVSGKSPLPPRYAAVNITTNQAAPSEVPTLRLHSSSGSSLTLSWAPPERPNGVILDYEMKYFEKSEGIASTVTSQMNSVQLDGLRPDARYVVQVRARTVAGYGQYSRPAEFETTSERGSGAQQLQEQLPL

Experiment [5] has as its target T5, human EphB4 extracellular region-SEAP-His protein (human, UniProt P54760 16-539).
T5 construct: extracellular domain; also called hEphB4-SEAP-His
T5 sequence (looked up): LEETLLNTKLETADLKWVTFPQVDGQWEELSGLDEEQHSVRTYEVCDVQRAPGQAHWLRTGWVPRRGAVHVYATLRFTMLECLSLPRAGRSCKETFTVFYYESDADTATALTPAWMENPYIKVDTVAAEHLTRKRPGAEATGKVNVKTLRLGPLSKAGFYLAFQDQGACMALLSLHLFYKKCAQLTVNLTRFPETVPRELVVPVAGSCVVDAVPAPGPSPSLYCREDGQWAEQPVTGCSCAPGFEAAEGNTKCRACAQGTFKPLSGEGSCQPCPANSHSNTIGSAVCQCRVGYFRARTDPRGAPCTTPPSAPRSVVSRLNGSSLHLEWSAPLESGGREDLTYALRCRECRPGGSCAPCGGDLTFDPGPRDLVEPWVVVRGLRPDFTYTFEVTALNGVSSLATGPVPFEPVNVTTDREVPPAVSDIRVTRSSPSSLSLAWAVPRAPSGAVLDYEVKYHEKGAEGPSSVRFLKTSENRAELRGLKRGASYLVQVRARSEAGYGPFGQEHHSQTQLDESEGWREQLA

T2 sequence (P54756 25-573): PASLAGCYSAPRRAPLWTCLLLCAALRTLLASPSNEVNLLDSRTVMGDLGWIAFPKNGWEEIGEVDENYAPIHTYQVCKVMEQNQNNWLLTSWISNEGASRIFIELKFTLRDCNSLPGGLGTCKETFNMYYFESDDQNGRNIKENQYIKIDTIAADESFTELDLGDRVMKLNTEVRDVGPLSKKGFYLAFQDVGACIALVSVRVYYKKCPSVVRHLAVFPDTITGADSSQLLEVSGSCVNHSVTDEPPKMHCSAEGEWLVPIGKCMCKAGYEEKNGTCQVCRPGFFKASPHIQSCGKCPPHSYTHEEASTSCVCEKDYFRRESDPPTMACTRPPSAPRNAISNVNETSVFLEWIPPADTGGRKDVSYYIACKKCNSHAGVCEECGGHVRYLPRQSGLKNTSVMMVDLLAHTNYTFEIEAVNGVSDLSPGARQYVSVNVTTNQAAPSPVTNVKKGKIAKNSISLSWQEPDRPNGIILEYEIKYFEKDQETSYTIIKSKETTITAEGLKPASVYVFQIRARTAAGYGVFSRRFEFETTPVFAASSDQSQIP

B1: humanized antibody No. 92 (antibody, human IgG1, kappa)
heavy: QIQLVQSGSELKKPGASVKVSCKASGYTFTDYSMHWVRQAPGQGLKWMGWINTETGEPTYADDFKGRFVFSLDTSVSTAYLQISSLKAEDTAVYYCARIPLYYYGSRYWYFDVWGQGTTVTVSSASTKGPSVFPLAPSSKSTSGGTAALGCLVKDYFPEPVTVSWNSGALTSGVHTFPAVLQSSGLYSLSSVVTVPSSSLGTQTYICNVNHKPSNTKVDKRVEPKSCDKTHTCPPCPAPPAAAPSVFLFPPKPKDTLMISRTPEVTCVVVDVSHEDPEVQFNWYVDGVEVHNAKTKPREEQFNSTFRVVSVLTVVHQDWLNGKEYKCKVSNKGLPAPIEKTISKTKGQPREPQVYTLPPSREEMTKNQVSLTCLVKGFYPSDIAVEWESNGQPENNYKTTPPMLDSDGSFFLYSKLTVDKSRWQQGNVFSCSVMHEALHNHYTQKSLSLSPG
light: DIQMTQSPSSLSASVGDRVTITCRASENIYRNLAWYQQKPGKAPQLLLYAATNLADGVPSRFSGSGSGTDYTLTISSLQPEDFATYYCQHFWGTPWTFGQGTKVEIKRTVAAPSVFIFPPSDEQLKSGTASVVCLLNNFYPREAKVQWKVDNALQSGNSQESVTEQDSKDSTYSLSSTLTLSKADYEKHKVYACEVTHQGLSSPVTKSFNRGEC
notes: human Ig kappa; also called L1-6/HK4
Take B1: the “A450 as % of hEphA4-SEAP-His” value in experiment [1] turned out to be 6.5%; in experiment [2], 6.8%; in experiment [3], 6.4%; in experiment [4], 6.9%; in experiment [5], 6.6%.

B2: humanized antibody No. 140 (antibody, human IgG2)
heavy: QVQLVQSGSELKKPGASVKVSCKASGYTFTDYSMHWVRQAPGQGLKWMGWINTETGEPTYAQGFTGRFVFSLDTSVSTAYLQISSLKAEDTAVYYCARIPLYYYGSRYWYFDVWGQGTTVTVSSASTKGPSVFPLAPSSRSTSESTAALGCLVKDYFPEPVTVSWNSGALTSGVHTFPAVLQSSGLYSLSSVVTVPSSNFGTQTYTCNVDHKPSNTKVDKTVERKSCVECPPCPAPPAAAPSVFLFPPKPKDTLMISRTPEVTCVVVDVSHEDPEVQFNWYVDGVEVHNAKTKPREEQFNSTFRVVSVLTVVHQDWLNGKEYKCKVSNKGLPAPIEKTISKTKGQPREPQVYTLPPSREEMTKNQVSLTCLVKGFYPSDIAVEWESNGQPENNYKTTPPMLDSDGSFFLYSKLTVDKSRWQQGNVFSCSVMHEALHNHYTQKSLSLSPG
light: DIQMTQSPSSLSASVGDRVTITCRASENIYRNLAWYQQKPGKAPKLLVYAATNLADGVPSRFSGSGSGTDYTLTISSLQPEDFATYYCQHFWGTPWTFGQGTKVEIKRTVAAPSVFIFPPSDEQLKSGTASVVCLLNNFYPREAKVQWKVDNALQSGNSQESVTEQDSKDSTYSLSSTLTLSKADYEKHKVYACEVTHQGLSSPVTKSFNRGEC
notes: human Ig kappa; also called L1-4/HA2
On to B2, for which the “A450 as % of hEphA4-SEAP-His” value in experiment [1] is 5.5%; in experiment [2], 5.4%; in experiment [3], 5.2%; in experiment [4] it was 5.4%; in experiment [5] it was 5.4%.

B3: humanized antibody No. 139 (antibody, human IgG2)
heavy: QVQLVQSGSELKKPGASVKVSCKASGYTFTDYSMHWVRQAPGQGLEWMGWINTETGEPTYAQGFTGRFVFSLDTSVSTAYLQISSLKAEDTAVYYCARIPLYYYGSRYWYFDVWGQGTTVTVSSASTKGPSVFPLAPSSRSTSESTAALGCLVKDYFPEPVTVSWNSGALTSGVHTFPAVLQSSGLYSLSSVVTVPSSNFGTQTYTCNVDHKPSNTKVDKTVERKSCVECPPCPAPPAAAPSVFLFPPKPKDTLMISRTPEVTCVVVDVSHEDPEVQFNWYVDGVEVHNAKTKPREEQFNSTFRVVSVLTVVHQDWLNGKEYKCKVSNKGLPAPIEKTISKTKGQPREPQVYTLPPSREEMTKNQVSLTCLVKGFYPSDIAVEWESNGQPENNYKTTPPMLDSDGSFFLYSKLTVDKSRWQQGNVFSCSVMHEALHNHYTQKSLSLSPG
light: DIQMTQSPSSLSASVGDRVTITCRASENIYRNLAWYQQKPGKAPKLLVYAATNLADGVPSRFSGSGSGTDYTLTISSLQPEDFATYYCQHFWGTPWTFGQGTKVEIKRTVAAPSVFIFPPSDEQLKSGTASVVCLLNNFYPREAKVQWKVDNALQSGNSQESVTEQDSKDSTYSLSSTLTLSKADYEKHKVYACEVTHQGLSSPVTKSFNRGEC
notes: human Ig kappa; also called L1-4/HA1
As for B3, the “A450 as % of hEphA4-SEAP-His” value in experiment [1] amounted to 5.9%; in experiment [2], 5.7%; in experiment [3] it was 5.5%; in experiment [4], 5.6%; in experiment [5], 5.7%.

B4: humanized antibody No. 138 (antibody, human IgG2)
heavy: QIQLVQSGSELKKPGASVKVSCKASGYTFTDYSMHWVRQAPGQGLKWMGWINTETGEPTYAQGFTGRFVFSLDTSVSTAYLQISSLKAEDTAVYYCARIPLYYYGSRYWYFDVWGQGTTVTVSSASTKGPSVFPLAPSSRSTSESTAALGCLVKDYFPEPVTVSWNSGALTSGVHTFPAVLQSSGLYSLSSVVTVPSSNFGTQTYTCNVDHKPSNTKVDKTVERKSCVECPPCPAPPAAAPSVFLFPPKPKDTLMISRTPEVTCVVVDVSHEDPEVQFNWYVDGVEVHNAKTKPREEQFNSTFRVVSVLTVVHQDWLNGKEYKCKVSNKGLPAPIEKTISKTKGQPREPQVYTLPPSREEMTKNQVSLTCLVKGFYPSDIAVEWESNGQPENNYKTTPPMLDSDGSFFLYSKLTVDKSRWQQGNVFSCSVMHEALHNHYTQKSLSLSPG
light: DIQMTQSPSSLSASVGDRVTITCRASENIYRNLAWYQQKPGKAPKLLVYAATNLADGVPSRFSGSGSGTDYTLTISSLQPEDFATYYCQHFWGTPWTFGQGTKVEIKRTVAAPSVFIFPPSDEQLKSGTASVVCLLNNFYPREAKVQWKVDNALQSGNSQESVTEQDSKDSTYSLSSTLTLSKADYEKHKVYACEVTHQGLSSPVTKSFNRGEC
notes: human Ig kappa; also called L1-4/HA4
On to B4, for which the “A450 as % of hEphA4-SEAP-His” value came to 4.9% in experiment [1]; 5.1% in experiment [2]; 4.9% in experiment [3]; 5.1% in experiment [4]; 5.2% in experiment [5].
